In the NTF2 design screens of Basanta et al. (2020):

Assay: protease stability score; higher = more stable; yeast display proteolysis, trypsin and chymotrypsin;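 further: relative to predicted unfolded state with 0 unfolded-like and 1 meaning tenfold more protease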

Row | Sequence | protease stability score
1 | HEDHKFLNEFVELWLRAEHTGDEDWLEENADPNTRVEVNGKSIHGMEYELRHLHHVLDRFKNMTFDTTVTRIDQQGDKAKVKVEIRLDIDGKDIRLEVDLIITKINGRWIVREIRYK | 1.22
2 | HEDKKSLEDFLELLLHAIATGDEEILRHLLDPNVRLDIDGRHVVGREELLRWFREIRVKRSDIRIDHFHVQGDKIHADVTDLYDGEFNGKRHLMVLKTELILVKFNGRWHIRTMHFH | 2.23
3 | HEDKQMMEEAVKLWIETSLTGDWRTFHRLADPHVKLQQGDKDLHGREDTRELMEKLGLDRVDIHIRKFRLYDGRIELHVEENFNGKVFEIFIDMRKVDGRWELHRVELR | 1.43
4 | HEDNDIMEKAMEDILEKIVTGDEDFLREQMDPHVRSVDIINGRRIERHGREDILELLRRLGFDHVRLERYDIQGDKLIVHSKFTYGDKETELRIIIWKVNGRWVFHSVEVIIL | 1.87
5 | HEDQERLKRFLEFYVHLINTGDEDRIRDLIDPHARVDIDGRIYHGREMYTQAYRDLGIDYLEIKRWEIQGDKVHLDTRVHIDGVERQTHLIIMKFNGRWIVHTMEVQ | 1.56
6 | HEDRKLEREIAEEMVKLWLTGDETRFEQLADPHVRVEDGDKESHGRENFSKLVRHRKTEFGIDHIEVEDIRVYDGRVEIRVRMEIGEKETHVRIIQVVINGRLKSVHLHFR | 0.771
7 | HEDYEDLDKLREHLLTAMKTGDWEVMYRNFDPHVRLLYNGKDTHGREDLRRLVEEMRTRDVRIIITREEIQGNKVFMHGTLEVDGNWNGVDRHIHREVTHIMVKIDGRWIVTVERIR | 0.899
8 | HEEDEDAERAMRILVEWTKTGDEDKLRRNMDPNVKLWIDGQELHGRDSFKHLLTRFKNVKFEISDIRVLNHEEVVEIQLDTHLRIDGREHRVEIILIVIKVNGKWVMKLVEVRVR | 2.12
9 | HEEDEMAIKIVELFIHALHTGNEELLHNLLDPEVRLTVDGRRIHGRHWVLRELLHIRVHDIHWTDIDKVNGKIELHTRQDGDVDGRRHEVNVTLVVIKVDGQWILHSVMVE | 2.09
10 | HEEDERIEHFFELYKRSLKTGNEEIIEYLFDPHVRYEQGDWEVHGRTEFIEMLKHLRFHTVRLRDYRLIGDYVHLDIELEGRVGDKNLHVKSTLIALKVDGRWRIHTLEIE | 0.772
11 | HEEDHHMEIAIELNQRMLQTGDEELLEKLADPSVRLKQGDKDVHGRHVVSRWLHEVIMKFPNVTIIERHVRIIDGKVHFHGDWHFNGVDQHVTIIAEKVNGRWILKTIELK | 0.983
12 | HEEDKWMKEVLYRFYEHYQTGDEDSLVKLMDPHAKLSFEGRENHGRDAIKTYWDIMGFDHLRLRDYEIRIIDGRAHLIVDTEIEIGDKRRRTIIIMHVLKFNGRWIVTHFHVEVR | 0.835
13 | HEEEEEAERFVKEIIHSWKTGNEDDMHRLVDPNVRLIIGDKTYHGRENFVKHMEEWLQRAGVKHFHLRKVDVFDGKLDIHSEVRQGSDETELHISVEKINGRWRLQLVIIV | 1.7
14 | HEEEEEARDLLKKLLEDFETGNEESLHEYADPNTRTIWDGVEFHGREWMLEIIKQIRVHSVHIHDVRLIDGVLIVKGRMDGDINGQRHTLEVNIFFLKINGRWFFHHMEFE | 2.51
15 | HEEEEEARRFSTLFNRAMLTGDEDELKEYADPHVRIDINGVILHGRERLREWLEKYLKEIRWHDFKIEHVDVQGDKVDIKVNVDGHINGRRTTRETEIRVEKIDGRWVIREIRFR | 0.673
16 | HEEEEEFKHVVKEVKEFSETGDWDVLNELMDPHVRLFVNGRLHHGREQISEFWHKVKNVTLIIRHIRPVGEKLEVDGEMKFDGKNIEARIHAQKIDGRWITREYRII | 1.12
17 | HEEEEEIKEATRLFEEIHRTGDERESREMIDPNALFEVGNFKDHGWDSIHVLMRRVKNVKITLDDFKIQGDKVHLHITENFNGKRVHVTIIAVKINGVWFVHKIRYD | 1.44
18 | HEEEEEIVRHLEKLLRDLWTGDWDDIEHNLDPNVRIEYGEKTRVGREKFVKTFFDMGMKLRHVRINEFHVVDGRLHVDTRIDGNFNGVEFRTRVEIIAVKINGKWVLHSVHIL | 1.22
19 | HEEEEEVKEALKELKELLETGDEDLWRRLADPDTRFELEFEGRHFHLHGWEAVLHFIREIKRRFKNVQFDWKRLNTQGNFAHMHVEIRVGDKIIHLDIIVLKYNGQWLDKRVRIFFE | 1.91
20 | HEEEEFSRRLAEMLFEFWLTGDEDALERLIDPNARVEMSINGRDFHTHGRDHIIEWVRKIKNLVFRIRRVEIQGEKIILDGEFDVNGVRTRWKLNLVFIDGVVHRLNIIHV | 1.72
21 | HEEEEHIWRMFKLFIHYLLTGDPDMLARYADPNVRLDINGQEWHGREEMFEMLKIFFDELRIKHFHLRRWRVVDGVAHVDVETHGNYNGREETRKVHIHVVIFNGRMKELVIKIS | 2.66
22 | HEEEEHSIRILEEWWRALLTGDEDRLKELMDPHVLLLSDVGDKNHIHIGREEAFRFWHEFVRQVKNMTLRIDQVHVQGDKVHLRGTLLINGRERDIRIDILIINGKVREVRIKII | 2.45
23 | HEEEEIERIAYNIYEYVRKTGDERVMTEMADPDARLIYGDKELVGREHMVQFLRWLLEQYKNVQLHIEHVEMIGDFVKIQSNLNVNGRTIEVELILLKYNGKWRIRSSVFK | 1.07
24 | HEEEEIVHRFVEDWFRHLKTGDFRSLFQLLDPHTRTDINGKSIHGRDTIMTEIIENMIRLGVNHMEVRIHHISVVDGQAHIDIWLIIRVNGKEQAHHVHILAQKINGKWFLKDIRFE | 1.5
25 | HEEEEKARYFLEIFFHHLLTGDWHILMELLDPDVRMEYDGKKFHGRESAIEIWRELRVTEIHIRHIHMFNGRVYADTEMRGIVNGVNTNTHSELYVRKYDGRWKVEFVVVH | 2.31
26 | HEEEEKVERYTRMYWNHLLTGDEDILQELMDPHARSTEIYGDFRIENHGRKAQHWLLRRIDHITSLRIHDVQIVDGVALVDSESDYRIGDKEIRVRTELIVHVVNGKIKSVSISVR | 0.896

Row | Sequence | protease stability score
27 | HEEEELARKLVEILLNLLLTGDEDVIRHLLDPNARIHIDGQDNVGREEVIRVWRHWLEKFGIDHIEINRIHYQGEWLHIIGLVKVNGRERPLHIHLNVINGRLKHSEFRIR | 1.48
28 | HEEEELERTILELVLHYLKTGDEHFMKNMADPNARSTIGDKDLHGREWMSEVWKRIKNVRIEIDRVDMINGVVHLHITVEYNGRRTHLTLHAEKVDGRWIIRELRVE | 1.61
29 | HEEEELLERAMKELEHILRTGDWELHEKNADPHVKLDVNGRIVHGRELVITVLRRLFEELGVDHIHLHDFKVVGDKMHIDLRIHVGDKEFQLEIIIIKIDGRWHIHSERFN | 0.363
30 | HEEEELLERVIRLMVENIITGNEDQLNNLVDPHAKIDIDGVILHGRDWVRDLHERVDHMEVRITDWRMIGDKVQTDSRLTNRFNGKEYRRDVRFHAHKINGRWINQTIEIR | 0.722
31 | HEEEEREKEISDTFLMAWRTGDWKFFHELADPHVRVEIGDKRFIGRELLTKHMRHNVNKVKGMTHTLTHIIIQGDKIHLDGELIVDGRSHKVDFHIIVIDGRLHSLHVIIS | 0.574
32 | HEEEERLKEVLELVVESFRTGDFNYLKNLIDPNVRVTVGDKDVHGRDFFVRIMSEMRVTHYEFRHVERFNGQAHIDGELDIRIGDKRERHEIKIITLKINGKWYMETLIIQ | 1.18
33 | HEEEESFKNALEMWIRTVKTGDEKLESDLLDPDARLIFNGQEFHGRELVKKILIDWRKELRVRDFELRDFHIQGDKIYIDGTMFVEINGQTETRKIVIVFVKVNGRWLIHQVTFH | 2.24
34 | HEEEEWFKEVLHEVERLLMTGDWRTLVELLDPNVRININGVEYHGREEAHHKLEETFRRLGFDHIHFQHVEHQGEKVIVHLEVRFNGQSSIIRFVVLKVNGRWFNHSLQIN | 1.29
35 | HEEEHDLKEVIRLFLELIDTGDEDVLERLADPNMRVIQGDKTIHGREEVRRTMQEDAKRIDHFEFRLRRVRVINGRLEVDGEFIERAEGHEFRSRVNIMLVKVNGRWVLKIIELR | 1.65
36 | HEEEHEMRKLAHILFEVLLTGNWKLLAELADPDVLTHINGRDMHGMESELETWKHLRIRDMKIRHVDVQGDKVHLDTELEGEINGRRFQTRTHIHYLLVDGRTKHVKVQID | 1.51
37 | HEEEHHMRELFKRFWHLFETGDWDKLAKNADPNVRSDINGVDRHGREEVIHELKRIWDELGIDHLELKEVHIQGNKVHSDGKLVYNGVSRKTHIELIVYNGVLKRMSIEIH | 1.38
38 | HEEEHVAKEIVEILYHAIITGDEDLIKELMDPNVRLDINGKQVHGRDEWIKELRHLRFRHMKLEVKAVEVVDGRIHSDVILHVDGHFDGRTRRLTIEVHWIIFKINGRWHIQSVEIR | 2.31
39 | HEEEKEIEKWVRLLLEVIQTGDEHWFERMADPNARVEVGEFEKHGRELFFEMTVRIVKKLGVDHVQLRRFDLIDGVALDHMELRIGDKHVEFIHISSKVNGRWFDKEVRVREI | 0.939
40 | HEEEKHAHEVLQLFIESVETGDWRMWEHLADPHVRLEVNGQEVIGREDALRWLEELLKKLGVDHFKLELEDHHIQGEKVRSITRSHIRVNGVRIDRTTHVIIVVINGRLKHIEVRER | 0.204
41 | HEEEKHLKEMIERLYHYQLTGNWEELHRLADPHAKWHINGQDIHGMHIAVELILKEVRRIDHVDSDSKRIDMQGDKMRSNVHEIIEVGDKSIRRDSILILVIIDGRIREVSIIIL | 1.1
42 | HEEEKHMEELSRHFLHNEHTGDEKMLKHLADPHAKVFINGRELHGWDVLVEWLNKFKNIKVELHSERVINGRLFLHVNYHVNGRTTELHLILYIVDGKIHTLILEVR | 0.756
43 | HEEEKHREDFVRTWLHNLITGNFEHHRHLADPRVRIRIIVDGREQRIHGREEMIRWFREWMELFPGYYRHIEHSDIIGEYVHIEGQLEVNGKRLDVHIHLEVINGKIKHLTIDSR | 1.09
44 | HEEEKIIEEASKRWLELMQTGDEDKVLHYLDPEYRSEWDGVEIHGRETFRKWLLDLLRKFKGLRFEFRDVRDVGDKVRIIGTVTYDGKVRDTRIDVVIVNGRYKSMEIHFN | 1.69
45 | HEEEKLARTFSEVVERSLYTGDEDSLKRLMDPHVRMNVNGVRHIGMELAKEWLHRYIRQLGIDHSTIRHSHDEIQGEKVIVRLHGELVYNGVSREVELIIHVNKVNGVWTISELLVILK | 1.25
46 | HEEEKLNHLWYEIVVHLLLTGNWKEIKKNADPHARSDINGVEYHGREEVSEVLHHVMKKMGAKVFREKEHDHQGEYMHIHFEIRVGDKLVESTLISLKVDGRWIHHEYREK | 1.37
47 | HEEEKQIHDIIEIIIRLLVTGNEEIHKRLADPHVRVEVGDKHFHGREEVTKFLMRIDHVQHVDHRIHRMDIIDGRADVHGDLLIDGDFDGRRTRTDIRVRWRIIKIDGRWILHSYSVL | 1.24
48 | HEEEKQMREAVEEAYHVLRTGDEKTIRELADPDVRLDINGKEIIGRELFFRHLWYEFYFFKNMRITIKHYEIQGEKVHIHIEIDWNGKELRSHMEVDKVDGRWLLHSVIFR | 0.783
49 | HEEEKSRKKEFEEYVRSVKTGDERLLTEMADPNARVHIGDKTLIGRELMHEMWHEQLKQIDVFHDIKTTHSEVQGDKIHMHVVEDIIIGDKRHTIRLRMIAWKFNGKWLVEEVRFE | 0.435
50 | HEEEQEIEKIVEDILRAWETGDWKTFYELADPHTKHTLIQGDKHIHRHGRDRMSDLLEELLKRFKGAIVDIKDIKWIDGQLNMTGELQIGDKKHKVHLHMNFIDGKIKRIEIRVD | 1.13
51 | HEEERDAEKLIRIWYHYLVTGDEERLLELLDPSTRMDINGVTHHGMEIVRDALHDLLRHLGVKVFRDIHIESVEIQGEKVITRMHVLFEVDGQELRIDSILFSHKINGKWLIEMHSKK | 1.23
